Measurements from the DeepSol protein solubility set.

Assay: soluble on expression in E. coli; label from the status in PepcDB or PDB records

For “NPYETFRIADELRRELVGDTVTYVVNRNINFTDICINDCKFCSFRNRKKYLLSLDEIKQKVEEAVEFGCTELCIQGGLLPDADLDFYLSILQAVRDVDKKIHIHAFSPMEVVHAARNSGMTVEEVLKELKKEGLGSMPGTAAEILDDSIRALICPRKLKTAEWVEVIKTAHRVGIPTTATIMYGHIDTWEHRINHLLLIKKIQQETGGITELIPLPFMSKNNELGRYAKGSSGFDDLLMIAIARILLYPEIKNIQASWVKMGQKLAQAALHVGANDLGGTLMEENISKSAGATSGEFMHPEELRELIKIAGRVPKQR”, which “soluble on expression in E. coli” value is on record?
Its value is “not soluble”.

Which “soluble on expression in E. coli” value does the source give for “MEYFNVGKIVNTQGLQGEMRVLSVSDFAEERFKKGSQLALFDDKDRFVQEVTIVSHRKQKHFDIIKFKDMYHINAIEKYKGYTLKVSKDNQGDLQEGEFYYHQIIGMAVYEKDVLIGHVKEILQPGANDVWIVKRQGKRDLLLPYIPPVVLNVDVPNKRVDVELMEGLDDEDLEHHHHHH” here?
The value was “soluble”.

Which “soluble on expression in E. coli” value does the source give for “MSLSEQHIDPTRLRMDELVVALTDRETELAAAEGRIRELEREVSELRRSLNSPSQEAELERLRLLAGTTAVTGPGVVVTLSETPEAVTAKNRVADEDIWRVVNELYTAGAEAIAVGGVRLTSVSGIRNVGERILVGETMIASPVEIHAIGDPAVLDASLKLRGGVIDLLARWGIKVTVVKSDSLTLPPLKTQPAFRYAKPAESAGSEGHHHHHH” here?
Its value is “soluble”.

For “MMKKTPTSTKDSLPNKEMNDLPRLASAVLPLCSQHPGQCGLFPLEKSLDAFAARYRLAEMAEHTLDVQYYIWQDDMSGRLLFSALLAAAKRGVRVRLLLDDNNTPGLDDILRLLDSHPRIEVRLFNPFSFRLLRPLGYITDFSRLNRRMHNKSFTVDGVVTLVGGRNIGDAYFGAGEEPLFSDLDVMAIGPVVEDVADDFARYWYCKSVSPLQQVLDVPEGEMADRIELPASWHNDAMTHRYLRKMESSPFINHLVDGTLPLIWAKTRLLSDDPAKGEGKAKRHSLLPQRLFDIMGSPSERIDIISSYFVPTRAGVAQLLRMVRKGVKIAILTNSLAANDVAVVHAGYARWRKKLLRYGVELYELKPTREQSSTLHDRGITGNSGASLHAKTFSIDGKTVFIGSFNFDPRSTLLNTEMGFVIESETLAQLIDKRFIQSQYDAAWQLRLDRWGRINWVDRHAKKEVILKKEPATSFWKRVMVRLASILPVEWLL”, which “soluble on expression in E. coli” value is on record?
Its value is “not soluble”.

Which “soluble on expression in E. coli” value does the source give for “MLVLGSGGARGYAHIGVIEELEARGYEITCIAGCSMGSVIGGIYAAGKLREYREWVESLDYLDVLRLLDVSFRLGAIRGERVFGKIHEILGEVNIEDLSIPYTAVATDLTNQQEIWFQEGCLHQAMRASAAIPSLFTPVMQGSRMLVDGGLLNPLPIVPVV” here?
The value was “soluble”.

With “MLRHSPSLWELVEEHVPLRERREVKRILGEAAVDLSLELRAEVAMLRALLQEARSSQAPSSRPISDPSSLLAPPPLLKDLLRQELRQLLQGLRHKAICEGRDQAQAWVQYSPRVLHFALEEPRCDLPEQEIFQMRGGGPSSGHRDLSIIKDQLNVSNIDQVARHLRGLLEEECHTLEREILILQRCLEEEYLRPCHPSEAALEPTLAELKEQKKAMEQELQASVGPSCVSPNHRQRPLGSSTQGLRPPLPLCGVAPLQCCLPAPPLEPYLRPRGQSATHRWGRQLQCSPREGPASTPMSSAAPQAPA” as the sequence, how does the “soluble on expression in E. coli” value read?
The value was “soluble”.

Which “soluble on expression in E. coli” value does the source give for “SLSSVNCIEQTTEWTACSKSCGMGFSTRVTNRNRQCEMLKQTRLCMVRPCEQEPEQPTDKKGKKCLRTKKSLKAIHLQFKNCTSLHTYKPRFCGVCSDGRCCTPHNTKTIQAEFQCSPGQIVKKPVMVIGTCTCHTNCPKNNEAFLQELELKTTRGKM” here?
The value was “soluble”.

With “MSTHIQRSALLPYPARALFDLVNDVKRYPEFLPWCSASQVLEESESLMRAELTVAKGSLSQRFTTRNVLVPGASIEMNLENGPFTELHGVWQFKALGEKACKITLDLTFDYAGPLVKATLGPLFTQAANTMVDAFCQRAKQLYG” as the sequence, how does the “soluble on expression in E. coli” value read?
The value was “not soluble”.

For “MGSDKIHHHHHHMNALTWLTKHSQAVIFRKKLAGLTACSQMIELSTPLNDGQRKFIFRQQSARATLLAINYAQEAYILQHLDALPFTPKVYYQTANSSLLTWLEGKPATAFDPDLLEQLALQLATLHAYPLPKQRTILQLAERCQLLWDRLTPSQQHQLNFCPPFKKIEPLQLAICHHDLHLANLIQHQQQLFIIDWEYSAISDPVLEIALFFQANTLNSVQKQFFLTTYLSKINLNEPLFKQKMAEYTPAIQQLSQLWYALSEAIT”, which “soluble on expression in E. coli” value is on record?
Its value is “not soluble”.

With “ANQLRELKQTHTYTVFGYTDGGFAVISADDLAPELLGVSESNFVETDNPSFKWWLKAIDEVITNAVKSNKPLNVIKPDPSKYAAEVSTLLTTTWGQQMPYNKLLPKTKKGRLITGAVATATAQVLNYFKYPVRGIGSHTVHYPANDPSGVAISADFGNTTYDWANMKDNYSGNYTEAEANAVATLMLHCGVASEMQYGGPNEGSGAYMTDCAAGLRTYFGFTDAEYITRANYTDEQWMDIVFSELTKGHPLIYGGVSPGSMGQDAGHAFVIDGYNKAGLVSVNWGWNGDVDGYYKIDLLNPGNMYSFTAEQDMVRGVYGKP” as the sequence, how does the “soluble on expression in E. coli” value read?
Its value is “soluble”.

For “MPCTDKGMIDLARKTVKLTTLRQGEEATIAGISKACRGANRRRLLDLGFVRGSRIAIDLTSPLGNPTAYVVRGTAIALRRDQARYILIYR”, which “soluble on expression in E. coli” value is on record?
The value was “not soluble”.

For “QKKTVQVYRIIAKNTIEERVCQVQAEKQELVSKTLVEDVNFFESLTNEELLRLFE”, which “soluble on expression in E. coli” value is on record?
The value was “not soluble”.

For “RYISESGSDKVQFLISTNIGEPLRPLEKIVSGGELSRIMLSMKTVFVNKDKIPSVIFDEIDTGISGRIAERVADKMYAVSENHQVFCVTHLPQIACMSDTQFMV”, which “soluble on expression in E. coli” value is on record?
The value was “not soluble”.

For “MSYSDLLRELAAAHAISSSYSGFGGAHVEVSDDTLVKTLRSLGVCFGNEDEPATDHEPLTGPMPSEDQIRYALQQRYDAEATRPLPRCVVAVEGDPYVFNVHVHDGAPADITITLEDGSTAEVTQVENWAPPREVDGITWGEASFQLPSDLPLG”, which “soluble on expression in E. coli” value is on record?
Its value is “not soluble”.

For “MGSDKIHHHHHHMTKFSVYIGIDWANDKHDVCVQVANSSARKFEVIKHSPKSINEWITSLHKQYKGQIAVAIELSKGPIVYALQKFDFITIHPVNTSMLAQYRKAFSPSGAKDDPTDAELALDLMLRYPNKIKALKMDSESVRKLTYLVEQRRKLVDDKRRFSNRLIITLKEYYPHLLDWFSHRGSGIFCDFITRWPNLQKLKRARADTLKKFFGSYPGRTAAYSVKRIQSISEAEPLTLDNAVIESHQLLAVALANQLLVAVKVIKVFDREISELFNALPDAELYKSLPGTGPCLAPRLLVAIGENRSRFNSASEIQMYAVIAPVTVRSGQKSWIHWRYQCSKFTRQSFIEWATKSIRQSYWAEIYYQQQREKGNTHQAAVRSLAFKWIRIIYRCWKTKEPYNEAKYLKALSDRNSPLLFKEKAC”, which “soluble on expression in E. coli” value is on record?
The value was “not soluble”.

Which “soluble on expression in E. coli” value does the source give for “MGSDKIHHHHHHMISDSISKRRSIRKYKNQSISHETIEKIIEAGINAPSSKNRQPWRFVVITEKEKESMLKAMSKGIQNEINDNGLLPGSRQHIAGANYTVEIMKQAPVTIFILNILGKSPLEKLSPEERFYEMANMQSIGAAIQNMSLTAVELGLGSLWICDVYFAYRELCEWLNTDSQLVAAISLGYPDEEPSRRPRLQLSDVTEWR” here?
Its value is “not soluble”.

Which “soluble on expression in E. coli” value does the source give for “MNLLKTIEKVKANWGGKYFSIEFVKNPKKVVRDWRNSGGIVVHLTMYGIPIDNIMEKIINKNTKILVVVGSEKVEGWYYYNSDYNIAIGNQPHSEVAALAIFLDRIYKGGELNIQFSDAKLSIIPQERGKKVRKNE” here?
Its value is “soluble”.

For “MSLLGRVLLFYKKGIFNDDLKKFLRSKNINVIDVRIGKYVEVDIMDDPRKVISLIGEPLFMVTEISGTFKPLFYEMRFWECHEIIEEKWREVKNKDDKKFLQAIILLCASLIKYLKGEIEVSDMLMEKALSLISDLPQELLPLLYISLGLNTEGHHHHHH”, which “soluble on expression in E. coli” value is on record?
The value was “soluble”.

For “MGSDKIHHHHHHMKGFLQTVTGPVAHTDMGLTLPHEHLFNDLSSVVDEPHYAFSQQLVGKKVSADLQWGLKHDPYCCADNMDRKEIDDVIFEINNFMSLGGRTIVDATGSESIGRDASALREVALKTGLNIVASSGPYLEKFESTRIHKPVELLASLIDKELNQGIGETDIRAGMIGEIGVSPAFTQAERNSLRAASLAQCNNPHTAMNIHMPGWLRLGDEVLDIVLEEMNVSPAKVSLAHSDPSGKDVVYQRKMLDRGVWLEFDMIGLDITFPKEGVAPGVQETADAVANLIALGYADQIVLSHDVFLKQMWAKNGGNGWGFVPNVFLAYLAARGVDNDTLRKLCIDNPARLLTA”, which “soluble on expression in E. coli” value is on record?
The value was “not soluble”.

With “LVDGSLCELRYSWAKIDTYQHVNNFITLNQVKIALAQSRCHNHHLDSTTITVWYDSAFSVMRDLKGIGANHVSGRSHGLTSRRTLLQVERAYQAFKNDQGLLPATYQVCFGVIHL” as the sequence, how does the “soluble on expression in E. coli” value read?
The value was “not soluble”.

With “MTTVTVTTEVPSSGKTEDGHVFCDSSSAHIIEETEYVRQMRTTLEKIRNHMFKEKEGCGNARHKLDAEGSGNIQNGSDSTTDPTCLDLLMENMRRKDQQLLEMNRENEVLQIKLEASREAGAAALRNVAQRLFDNYQTQAGDLEKKHEGRKHLLQVNNLEKEQALKGSAESLNLLSEKLEEKHGQIVGLENRVQRMENNKELKTRVAHWTETPRTLVSKAVSTSELKTEGASPYLMLIRLRK” as the sequence, how does the “soluble on expression in E. coli” value read?
Its value is “not soluble”.

Which “soluble on expression in E. coli” value does the source give for “MGSDKIHHHHHHMKISETANKNHEELFPDHKSALKITDPELVEIFDNFAFDEVIQHGDLDTKTRLMVILGALIGSQTLSEYKVMLKGALNVGVTPIEVKEIVYQSVPYVGIAKAYDFINATNEILESRGVKLPLEGQSTTTPENRHEKGLEVQKSIFGEIIDKMYESSPKNQIHIQKYLSANCFGDYYTRTGLDIKTRELLTFCIILALGGCESQLKGHIVGNLNVGNDKKVLLDAVTQTLPYVGYPRTLNAIACLNEIIPE” here?
The value was “not soluble”.

For “LMENGPEFKIEVSILKDVATVMIDTTGSSLFKRGYRTEKGGAPIKENMAAAILQLSNWYPDKPLIDPTCGSGTFCIEAVMIARKMAPGLRRSFAFEEWNWISDRLIQEVRTEAAKKVDRELELDIMGCDIDARMVEIAKANAQVAGVAGDITFKQMRVQDLRSDKINGVIISNPPYGERLSDDAGVTKLYAEMGQVFAPLKTWSKFILTSDEAFESKYGSQADKKRKLYNGTLKVDLYQYFGQRVKRQEVK”, which “soluble on expression in E. coli” value is on record?
The value was “not soluble”.

Which “soluble on expression in E. coli” value does the source give for “MALKATIYKATVNVADLDRNQFLDASLTLARHPSETQERMMLRLLAWLKYADERLQFTRGLCADDEPEAWLRNDHLGIDLWIELGLPDERRIKKACTQAAEVALFTYNSRAAQIWWQQNQSKCAQFANLSVWYLDDEQLAKVSAFADRTMTL” here?
Its value is “not soluble”.

For “MGSDKIHHHHHHMDDRPLFGPFARKGSYSRVQVFDHLFADDRFTALYQEIAILPEVDELMLYRRYLQKEDRVLVHGNFSATLFNTLCAEGYDLYLVESELTRIAGIADPYLHRVYGLSNEVVDVMGSHAFNKIILPGTTIARYSRGELLLFFRNIRHLLATDGQLLISIHNADYLRQNVQPIASRRMEDCTLFYGQKVDRDRLIFNTYLKSASDEKVGYVVEHLYETDTLFEFAKLSRYRGRTLYAGKSISILEFDKIG”, which “soluble on expression in E. coli” value is on record?
The value was “not soluble”.

For “EGIRQGVLKTAQNGNGNLIYLTGGMATVDHGAFHQGKFLTLKMDDSEVVRALPDVKSVAPTAKWKERITVGDRSSWQEPLAVTSEFQSMTNLVPMAGGRWLNPLDQKETRKVVVLGYELAADLFNPNEDFSWFATVTLQVNPVGKKVKIGNEEFTVVGVLEKNSAQIELGDLINYSSFVPLATWKRFHVNGEIGGINVQPQADVDREALAKTIRQVIARKHGASVNDEQVVQVDDMFLKQKSMQQFLIGLQS”, which “soluble on expression in E. coli” value is on record?
Its value is “not soluble”.

With “MGHHHHHHSHMEFIVDSVDKTMHIGRQLGSLVNKGDILCLTGDLGTGKTHISKGIAEGLGIDEHITSPTFNIVNEYHSGRLTLYHFDVYRVNDPDEIEAIGFDEYIFGDGVSLIEWANYIEELIPEEYIHIKIEKLPDMGENFRKITINGYGDRYNYIKEIKE” as the sequence, how does the “soluble on expression in E. coli” value read?
Its value is “not soluble”.
